Results reported in patent US7618943B2, “Fusion polypeptides, and use thereof in antivascular tumor therapy” (Oncoscience AG, priority 2003, dated 2009).
“Also recorded” adds a separate entry of the source.

Key:
integrin αvβ3 = integrin αvβ3 (Homo sapiens, UniProt P05106+P06756); assay: ELISA binding to immobilized purified αvβ3
Protocol: FIG. 4: Binding of tTF, tTF-RGD and tTF-NGR to integrin αvβ3. The binding of 0.1 μM tTF, tTF-RGD and tTF-NGR to immobilized αvβ3 was quantified with a polyclonal antibody against human TF (American Diagnostica) in an ELISA. The results are presented as median and interquartile range. The differences in binding between tTF-RGD and tTF or between tTF-NGR and tTF were statistically significant (p<0.001, Mann-Whitney test).

human endothelial cells = assay: FACS binding of biotinylated proteins to endothelial cells in suspension; assay type: cell-based; details: 0.1 μM tTF-RGD, 1 μM competing peptide
Protocol: FIG. 6: Binding of tTF and tTF-RGD to human endothelial cells. A: FACS analysis of endothelial cells incubated with 0.1 μM tTF (2) or with 0.1 μM tTF-RGD (3) for 60 min at 4° C. […] Curves 1 in A and B show the negative control.
Next the specific binding of tTF-RGD to αvβ3 on endothelial cells was evaluated. For this, the differential binding of biotinylated tTF and tTF-RGD to endothelial cells in suspension was analysed by FACS (Fluorescence Activated Cell Sorting). The fact that all endothelial cells held in tissue culture are activated, i.e. express αvβ3 molecules, is utilized experimentally. This can be detected by various immunohistochemical methods. A cultivated endothelial cell thus corresponds, in relation to its expression pattern with respect to αvβ3 to a tumor endothelial cell. Accordingly, a cultivated endothelial cell can be used as a model system for the specific binding of substances to tumor endothelial cells and also permits predictions to be made concerning the expected toxicity.
Streptavidin-phycoerythrin was used as the detection method. The measured fluorescence intensity for tTF-RGD was higher by a factor of 8 than for tTF (FIG. 6A). Furthermore, the binding of 0.1 μM tTF-RGD to endothelial cells was lowered competitively by 75% by the administration of 1 μM of the synthetic peptide GRGDSP (SEQ ID NO:33) (FIG. 6B). […]

[1] = molecular target: T1, matrix metalloproteinase-2 (MMP-2) (Homo sapiens, UniProt P08253); details: cited from earlier work
T1 sequence (P08253 110-660): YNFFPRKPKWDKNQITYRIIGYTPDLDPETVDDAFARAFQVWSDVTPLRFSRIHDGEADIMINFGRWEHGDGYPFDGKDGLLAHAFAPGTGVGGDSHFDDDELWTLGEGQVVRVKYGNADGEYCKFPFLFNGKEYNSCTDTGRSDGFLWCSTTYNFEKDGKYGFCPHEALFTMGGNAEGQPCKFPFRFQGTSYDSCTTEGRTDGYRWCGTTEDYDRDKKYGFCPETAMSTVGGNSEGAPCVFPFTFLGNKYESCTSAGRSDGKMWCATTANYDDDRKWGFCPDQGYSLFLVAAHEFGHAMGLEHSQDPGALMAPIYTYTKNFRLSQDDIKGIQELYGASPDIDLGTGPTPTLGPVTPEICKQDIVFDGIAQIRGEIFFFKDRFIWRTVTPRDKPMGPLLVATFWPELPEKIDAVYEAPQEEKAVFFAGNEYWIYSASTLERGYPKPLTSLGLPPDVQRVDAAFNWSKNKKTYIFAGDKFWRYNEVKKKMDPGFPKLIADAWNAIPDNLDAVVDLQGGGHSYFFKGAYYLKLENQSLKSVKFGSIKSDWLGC

[2] = system: human fibrosarcoma (HT1080); assay: HT1080 fibrosarcoma xenograft in BALB/c nude mice, intravenous therapy; assay type: in vivo; details: HT1080 tumors
Excerpt: b: Inhibition of a human fibrosarcoma (HT1080) growing as a xenograft in athymic nude mice by intravenous therapy with tTF fusion proteins (tTF-RGD, n=12) compared with the growth of the tumors with infusion of physiological saline solution (NaCl, n=15) or tTF (n=14). The vertical arrows indicate the times of the injections with the respective substances.
The antitumor activity of the tTF-RGD fusion protein was also investigated in BALB/c nude mice with fibrosarcomas (HT1080). These tumors grow rapidly and are well-vascularized. […] This effect lasted until the end of the experiment on day 7 (P=0.021 for tTF-RGD relative to the buffer control (physiological saline solution), P=0.005 for tTF-RGD relative to tTF).

[3] = system: human malignant melanoma (M21); assay: M21 melanoma xenograft in athymic nude mice, intravenous therapy; assay type: in vivo
Protocol: The vertical arrows indicate the times of injection with the respective substances.
The vertical arrows indicate the times of the injections with the respective substances.
(§1) The tTF-RGD and tTF-NGR fusion proteins were evaluated with respect to their effects and side-effects on xenografts of human tumors in athymic nude mice. The models established in our laboratory were used for this (33, 34). The cell lines CCL185 (human adenocarcinoma of the lung) and M-21 (human melanoma) were injected subcutaneously into the flank of male BALB/c nude mice (9-12 weeks old). On attaining a tumor volume of about 50-100 mm^3 (CCL185) or 400-600 mm^3 (M−21), the mice were assigned to four groups at random. Group 1 received only physiological saline solution (NaCl), group 2 tTF, group 3 tTF-RGD, and group 4 tTF-NGR (in each case 1.5-2.0 mg/kg body weight (BW) of the protein). The injections were made in the caudal vein of the animals at intervals of 1-3 days (depending on the growth rate of the particular cell line). Considerable therapeutic activity of the fusion proteins was observed.

[4] = molecular target: T2, activation of factor X to factor Xa via factor VIIa (Homo sapiens, UniProt P08709); assay: Cofactor activity in activation of FX by FVIIa (Michaelis-Menten analysis, chromogenic FXa readout); assay type: biochemical; details: in the presence of phospholipids
T2 construct: 50 nM recombinant FVIIa (Novo-Nordisk) in TBS-BSA; purchased Novo-Nordisk (FVIIa); Enzyme Research Laboratories (FX)
T2 sequence (P08709 61-212 limits assumed): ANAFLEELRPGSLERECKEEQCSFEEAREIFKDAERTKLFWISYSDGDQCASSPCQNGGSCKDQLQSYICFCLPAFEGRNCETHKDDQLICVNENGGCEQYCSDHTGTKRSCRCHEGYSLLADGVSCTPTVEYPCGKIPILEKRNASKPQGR
T2 sequence (P08709 213-466 limits assumed): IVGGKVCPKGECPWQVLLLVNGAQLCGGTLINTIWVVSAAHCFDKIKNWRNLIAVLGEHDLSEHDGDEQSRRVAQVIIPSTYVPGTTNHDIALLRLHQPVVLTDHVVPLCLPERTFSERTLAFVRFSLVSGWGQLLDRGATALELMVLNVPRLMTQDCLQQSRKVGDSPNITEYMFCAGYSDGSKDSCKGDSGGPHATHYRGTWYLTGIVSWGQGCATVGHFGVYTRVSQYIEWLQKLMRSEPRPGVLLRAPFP
Protocol: The ability of tTF and of the tTF fusion polypeptides to intensify the specific proteolytic activation of FX via FVIIa in the presence of phospholipids was determined in a slightly modified version of the method described by Ruf (45). For this, 20 μl of each of the following reagents was pipetted in microtiter plates: (a) 50 nM recombinant FVIIa (Novo-Nordisk) in TBS-BSA; (b) 0.16 nM-1.6 μM tTF/tTF fusion polypeptide in TBS-BSA; (c) 25 mM CaCl2 and 500 μM phospholipid vesicle (phosphatidylcholine/phosphatidylserine, 70/30, M/M; Sigma). After 10 min incubation at room temperature, 20 μl of the natural substrate FX (Enzyme Research Laboratories) was added at a concentration of 5 μM. Then a sample was taken by pipette at one-minute intervals and the reaction was stopped by adding 100 mM EDTA solution. The amount of FXa that formed was measured by addition of the chromogenic substrate Spectrozyme FXa in a Microplate Reader by determining the change in absorption at 405 nm and the parameters for the Michaelis-Menten kinetics were analysed by the method described by Ruf. […] The Michaelis constants (Km) found for the fusion polypeptides were in the range 0.12-1.2 nM (FIG. 3), and thus in the lower range that is published for tTF. It can therefore be assumed that the functional activity is unaffected by the fusing of tTF with the peptides.

[5] = system: human lung carcinoma (CCL185); assay: CCL185 lung carcinoma xenograft in athymic nude mice, intravenous therapy; assay type: in vivo
Excerpt: FIG. 7: Inhibition of a human lung carcinoma (CCL185) growing as a xenograft in athymic nude mice by intravenous therapy with tTF fusion proteins (tTF-RGD, n=6; tTF-NGR, n=6) compared with tumor growth with infusion of physiological saline solution (NaCl, n=8) or tTF (n=1). The vertical arrows indicate the times of injection with the respective substances.
c: Inhibition of a human lung carcinoma (CCL185) growing as a xenograft in athymic nude mice by intravenous therapy with tTF fusion proteins (tTF-RGD, n=11) compared with the growth of the tumors in infusion of physiological saline solution (NaCl, n=10) or tTF (n=5). The vertical arrows indicate the times of the injections with the respective substances.
as §1

tumor blood vessels = assay: Macroscopy and histology of tumors after injection (thrombosis induction in tumor vessels, necrosis); assay type: in vivo, mice
Protocol: FIG. 9: Macroscopic in vivo photograph of a tumor-bearing mouse 20 min after injection of the tTF-NGR fusion protein (A, left half of the picture) or NaCl (A, right half of the picture). […] After 60 min, the two mice were exsanguinated, the tumor was excised in toto and examined histologically. […] In contrast, the NaCl-treated tumor appears to be vital (C).
FIG. 10: Histology of the melanoma tumor 1 hour after intravenous injection of tTF-RGD (A and B), tTF-NGR (C and D) and common salt (E and F) in the caudal vein of the tumor-bearing nude mouse. […] The photographs are of representative areas of the tumors (A, C and E: 200× magnification, B, D and F 400× magnification; HE staining (staining described e.g. in H. C. Burck, Histologische Technik-Leitfaden für die Herstellung mikroskopischer Präparate in Unterricht und Praxis, 5th edition, Thieme Verlag, Stuttgart 1982, pages 109 ff.).
FIG. 35: Macrograph of a mouse bearing an M21 tumor at the end of treatment (day 7) with tTF-RGD fusion protein (A, C) or NaCl (B, D).
To verify the mechanism of action of thrombosis induction in tumor vessels, the following experiment was carried out: the human melanoma cell line was injected into the flank of two male BALB/c nude mice. On attaining a tumor size of approx. 500 mm^3, 2.0 mg/kg BW tTF-NGR or NaCl was injected into the caudal vein. […] After 60 min the mice were exsanguinated, the tumor was excised in toto and investigated histologically. […] In contrast, the tumor treated with NaCl appears to be vital (FIG. 9C).

[6] = system: normal tissue such as heart, kidney, liver and lung; assay: Histology of normal organs after injection (clotting, necrosis, organ toxicity); details: repeated high doses (4 mg/kg BW)
[7] = melanoma tumor 1 hour after intravenous injection, HE staining

integrin αvβ3, sequence (P06756 31-889 limits assumed): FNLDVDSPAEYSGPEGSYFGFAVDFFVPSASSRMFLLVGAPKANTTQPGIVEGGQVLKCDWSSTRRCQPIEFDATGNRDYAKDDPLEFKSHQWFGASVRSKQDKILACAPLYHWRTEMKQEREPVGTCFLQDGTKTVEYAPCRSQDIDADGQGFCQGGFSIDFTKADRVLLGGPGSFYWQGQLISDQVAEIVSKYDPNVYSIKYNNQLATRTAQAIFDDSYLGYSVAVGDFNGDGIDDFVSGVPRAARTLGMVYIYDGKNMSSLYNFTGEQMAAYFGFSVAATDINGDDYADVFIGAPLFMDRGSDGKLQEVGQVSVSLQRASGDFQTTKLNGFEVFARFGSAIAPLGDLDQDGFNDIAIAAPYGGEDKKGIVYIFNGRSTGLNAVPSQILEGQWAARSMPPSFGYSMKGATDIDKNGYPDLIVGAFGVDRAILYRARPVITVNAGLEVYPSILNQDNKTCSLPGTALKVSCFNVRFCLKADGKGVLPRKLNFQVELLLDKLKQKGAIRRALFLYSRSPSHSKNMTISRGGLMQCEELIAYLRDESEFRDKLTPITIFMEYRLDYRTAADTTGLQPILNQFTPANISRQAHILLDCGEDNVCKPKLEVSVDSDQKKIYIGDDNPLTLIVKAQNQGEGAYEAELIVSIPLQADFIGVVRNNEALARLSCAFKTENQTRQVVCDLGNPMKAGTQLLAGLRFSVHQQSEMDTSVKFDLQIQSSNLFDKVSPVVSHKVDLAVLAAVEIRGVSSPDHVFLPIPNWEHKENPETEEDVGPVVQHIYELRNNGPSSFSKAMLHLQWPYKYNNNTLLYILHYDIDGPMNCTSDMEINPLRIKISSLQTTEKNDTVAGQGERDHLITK
integrin αvβ3, sequence (P06756 891-1048 limits assumed): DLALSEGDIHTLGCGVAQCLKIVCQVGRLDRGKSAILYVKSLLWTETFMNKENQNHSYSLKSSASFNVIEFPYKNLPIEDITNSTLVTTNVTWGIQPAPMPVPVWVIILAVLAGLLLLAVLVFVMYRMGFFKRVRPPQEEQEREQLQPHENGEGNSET
integrin αvβ3, sequence (P05106 27-788): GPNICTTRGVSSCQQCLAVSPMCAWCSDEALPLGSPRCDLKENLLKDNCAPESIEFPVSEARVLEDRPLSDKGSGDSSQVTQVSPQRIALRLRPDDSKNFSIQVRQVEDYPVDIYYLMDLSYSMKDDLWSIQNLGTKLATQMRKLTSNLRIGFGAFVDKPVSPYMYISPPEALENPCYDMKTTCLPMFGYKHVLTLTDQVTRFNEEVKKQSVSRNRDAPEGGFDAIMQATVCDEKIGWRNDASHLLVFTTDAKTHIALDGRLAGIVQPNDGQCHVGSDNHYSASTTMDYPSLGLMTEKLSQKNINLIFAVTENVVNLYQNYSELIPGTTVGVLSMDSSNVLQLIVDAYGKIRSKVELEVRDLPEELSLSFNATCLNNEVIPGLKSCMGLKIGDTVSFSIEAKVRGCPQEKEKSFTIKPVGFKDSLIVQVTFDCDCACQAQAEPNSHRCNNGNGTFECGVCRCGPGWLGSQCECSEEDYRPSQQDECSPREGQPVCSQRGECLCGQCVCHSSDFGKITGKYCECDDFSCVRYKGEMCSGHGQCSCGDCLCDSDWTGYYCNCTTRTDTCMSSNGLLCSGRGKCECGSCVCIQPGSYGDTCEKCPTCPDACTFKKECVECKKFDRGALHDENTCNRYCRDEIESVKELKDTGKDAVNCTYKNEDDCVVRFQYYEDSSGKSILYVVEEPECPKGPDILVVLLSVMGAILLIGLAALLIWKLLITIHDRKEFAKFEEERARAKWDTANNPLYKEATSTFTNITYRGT

Molecule: GRGDSP: synthetic peptide with the sequence GRGDSP (SEQ ID NO:33) from the company Gibco
- p of inhibition of tTF-RGD binding (Mann-Whitney test) (integrin αvβ3; both RGD peptide concentrations (1-10 μM)): < 0.001
- competitive inhibition of binding of tTF-RGD to immobilized αvβ3 (integrin αvβ3; tTF-RGD 0.1 μM, peptide 1-10 μM): competitively inhibits; also recorded: inhibited significantly
- reduction in binding of tTF-RGD to endothelial cells (human endothelial cells): 75%

Molecule: TTHWGFTL
- inhibition of MMP-2 [1]: selective and potent inhibition

B1: tTF: truncated human tissue factor, N-terminal 218 amino acids of TF (SEQ ID NO:2) (protein, listed as Homo sapiens)
chain: SGTTNTVAAYNLTWKSTNFKTILEWEPKPVNQVYTVQISTKSGDWKSKCFYTTDTECDLTDEIVKDVKQTYLARVFSYPAGNVESTGSAGEPLYENSPEFTPYLETNLGQPTIQSFEQVGTKVNVTVEDERTLVRRNNTFLSLRDVFGKDLIYTLYYWKSSSSGKKTAKTNTNEFLIDVDKGENYCFSVQAVIPSRTVNRKSTDSPVECMGQEKGEFR
modifications: Amino acid sequence of tTF1-218
- Mean tumor volume Day 0 ([2]; Day 0 (baseline)): 1751 ± 269 mm^3
- Mean tumor volume Day 7 ([2]; Day 7): 2335 ± 398 mm^3
- Mean tumor volume Day 0 ([3]; M21 tumors, Day 0 (baseline)): 558 ± 47 mm^3
- Mean tumor volume Day 7 ([3]; M21 tumors, Day 7): 931 ± 147 mm^3
- functional activity (cofactor activity in FX activation via FVIIa) [4]: functionally active
- Mean tumor volume Day 0 ([5]; CCL185 tumors, Day 0 (baseline)): 44 ± 8 mm^3
- Mean tumor volume Day 7 ([5]; CCL185 tumors, Day 7): 764 ± 148 mm^3

B2: tTF-NGR: fusion polypeptide tTF-GNGRAHA (SEQ ID NO:4) (protein)
chain: SGTTNTVAAYNLTWKSTNFKTILEWEPKPVNQVYTVQISTKSGDWKSKCFYTTDTECDLTDEIVKDVKQTYLARVFSYPAGNVESTGSAGEPLYENSPEFTPYLETNLGQPTIQSFEQVGTKVNVTVEDERTLVRRNNTFLSLRDVFGKDLIYTLYYWKSSSSGKKTAKTNTNEFLIDVDKGENYCFSVQAVIPSRTVNRKSTDSPVECMGQEKGEFRGNGRAHA
modifications: Amino acid sequence of tTF-GNGRAHA
- histology of tumor blood vessels (thrombus formation) (tumor blood vessels; [7]): microscopically visible thrombus formation in the blood vessels; also recorded: blood vessels appear to be thrombolytically occluded
- histology: tumor necrosis in supply region of occluded vessel (tumor blood vessels; [7]): Extensive tumor necroses
- macroscopic picture of the tumor in vivo (tumor blood vessels; melanoma, 20 min after 2.0 mg/kg BW into the caudal vein): bluish-livid coloration of the tumor
- appearance of the excised tumor (tumor blood vessels; melanoma, excised 60 min after 2.0 mg/kg BW): hemorrhagic imbibition of the tumor
- effect on tumor growth ([3]; M21 xenograft, intravenous therapy, compared with NaCl or tTF): Inhibition and partial remission
- binding to the αvβ3 integrin in ELISA (integrin αvβ3; 0.1 μM protein, immobilized αvβ3): demonstrated
- visible clot formation or organ toxicity [6]: did not lead to any visible clot formation or organ toxicity
- effect on tumor growth ([5]; CCL185 xenograft, intravenous therapy, compared with NaCl or tTF): Inhibition
